Reference: US20070066522A1 (MICHIGAN STATE UNIVERSITY, published 2007)

Target: T1, c-Cbl (endogenous, in PH3MT cell lysates) (human, UniProt P22681 1-906)
T1 construct: also called c-Cbl E3 ubiquitin ligase; CB1
Experiment: method not described; Ras-transformed cells

binding result: binds
B1: Sprouty2 (endogenous, in PH3MT human fibroblast lysates) (other)
chain: MEARAQSGNGSQPLLQTPRDGGRQRGEPDPRDALTQQVHVLSLDQIRAIRNTNEYTEGPTVVPRPGLKPAPRPSTQHKHERLHGLPEHRQPPRLQHSQVHSSARAPLSRSISTVSSGSRSSTRTSTSSSSSEQRLLGSSFSSGPVADGIIRVQPKSELKPGELKPLSKEDLGLHAYRCEDCGKCKCKECTYPRPLPSDWICDKQCLCSAQNVIDYGTCVCCVKGLFYHCSNDDEDNCADNPCSCSQSHCCTRWSAMGVMSLFLPCLWCYLPAKGCLKLCQGCYDRVNRPGCRCKNSNTVCCKVPTVPPRNFEKPT
notes: Endogenous protein of the H-Ras-transformed human fibroblast strain PH3MT; also called Spry2; human Sprouty-2
